From patent US20260184748A1 (University of Pennsylvania, published 2026) come the findings set out here.

Where no end group is shown, it is not given here.

Targets include CNR1 (UniProt P21554 1-472); GCGR (UniProt P47871 26-477); DRD3 (UniProt P35462 1-400); PPYR1 (UniProt P50391 1-375); CCR5 (UniProt P51681 1-352); PTGIR (UniProt P43119 1-386, limits assumed).
Common to all, as to test: cell-based or functional assay
The next assay addresses T1, HTR2C (UniProt P28335 33-458, limits assumed).
T1 sequence (looked up): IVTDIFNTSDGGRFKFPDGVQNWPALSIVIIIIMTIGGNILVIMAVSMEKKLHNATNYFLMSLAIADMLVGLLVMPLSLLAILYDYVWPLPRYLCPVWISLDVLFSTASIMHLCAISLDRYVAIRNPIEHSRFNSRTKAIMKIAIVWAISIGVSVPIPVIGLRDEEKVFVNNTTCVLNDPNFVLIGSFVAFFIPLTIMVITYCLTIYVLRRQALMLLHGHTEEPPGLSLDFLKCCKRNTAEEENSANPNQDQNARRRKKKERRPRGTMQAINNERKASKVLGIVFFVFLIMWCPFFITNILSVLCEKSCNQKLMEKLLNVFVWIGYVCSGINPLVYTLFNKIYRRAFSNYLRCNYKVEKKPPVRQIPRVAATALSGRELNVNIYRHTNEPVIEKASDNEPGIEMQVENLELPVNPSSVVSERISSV

The target in another assay is T2, TACR3 (UniProt P29371 1-465).
T2 sequence (looked up): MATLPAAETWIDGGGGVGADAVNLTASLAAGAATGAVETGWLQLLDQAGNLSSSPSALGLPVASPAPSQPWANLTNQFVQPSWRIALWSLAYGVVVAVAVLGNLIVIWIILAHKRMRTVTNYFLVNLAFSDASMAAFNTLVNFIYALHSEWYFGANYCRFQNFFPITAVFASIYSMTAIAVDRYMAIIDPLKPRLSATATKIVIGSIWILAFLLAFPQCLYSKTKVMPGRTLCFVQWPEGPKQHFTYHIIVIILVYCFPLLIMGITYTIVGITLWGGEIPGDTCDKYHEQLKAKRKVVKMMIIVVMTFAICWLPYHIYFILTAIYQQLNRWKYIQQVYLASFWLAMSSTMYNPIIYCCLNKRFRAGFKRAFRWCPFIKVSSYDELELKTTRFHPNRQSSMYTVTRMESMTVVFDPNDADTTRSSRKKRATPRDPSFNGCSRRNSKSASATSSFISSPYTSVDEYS

The target of another assay is T3, CRHR1 (UniProt P34998 24-415, limits assumed).
T3 sequence (looked up): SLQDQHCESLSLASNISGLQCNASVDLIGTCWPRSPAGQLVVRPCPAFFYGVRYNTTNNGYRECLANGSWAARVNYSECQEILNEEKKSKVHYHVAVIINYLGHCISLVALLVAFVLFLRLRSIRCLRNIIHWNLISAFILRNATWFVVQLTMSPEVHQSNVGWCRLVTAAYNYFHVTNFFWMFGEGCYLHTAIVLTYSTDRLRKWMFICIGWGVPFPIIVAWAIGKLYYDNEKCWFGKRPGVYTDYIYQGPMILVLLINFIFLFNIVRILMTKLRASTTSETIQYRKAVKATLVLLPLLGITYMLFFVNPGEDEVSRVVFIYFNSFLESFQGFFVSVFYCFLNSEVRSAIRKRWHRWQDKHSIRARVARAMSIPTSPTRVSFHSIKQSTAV

A further assay has as its target T4, BRS3 (UniProt P32247 1-399).
T4 sequence (looked up): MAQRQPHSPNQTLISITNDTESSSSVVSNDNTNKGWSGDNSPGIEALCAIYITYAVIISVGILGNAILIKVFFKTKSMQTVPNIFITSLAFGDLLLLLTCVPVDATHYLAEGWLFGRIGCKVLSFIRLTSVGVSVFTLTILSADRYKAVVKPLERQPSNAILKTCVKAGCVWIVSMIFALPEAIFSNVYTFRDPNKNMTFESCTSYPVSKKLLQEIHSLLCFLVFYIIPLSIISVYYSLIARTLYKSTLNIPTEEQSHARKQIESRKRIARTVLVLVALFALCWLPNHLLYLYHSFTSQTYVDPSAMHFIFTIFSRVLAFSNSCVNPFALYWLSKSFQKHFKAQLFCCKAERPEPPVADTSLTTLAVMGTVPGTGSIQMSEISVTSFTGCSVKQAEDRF

A further assay concerns the target T5, TACR2 (UniProt P21452 1-398).
T5 sequence (looked up): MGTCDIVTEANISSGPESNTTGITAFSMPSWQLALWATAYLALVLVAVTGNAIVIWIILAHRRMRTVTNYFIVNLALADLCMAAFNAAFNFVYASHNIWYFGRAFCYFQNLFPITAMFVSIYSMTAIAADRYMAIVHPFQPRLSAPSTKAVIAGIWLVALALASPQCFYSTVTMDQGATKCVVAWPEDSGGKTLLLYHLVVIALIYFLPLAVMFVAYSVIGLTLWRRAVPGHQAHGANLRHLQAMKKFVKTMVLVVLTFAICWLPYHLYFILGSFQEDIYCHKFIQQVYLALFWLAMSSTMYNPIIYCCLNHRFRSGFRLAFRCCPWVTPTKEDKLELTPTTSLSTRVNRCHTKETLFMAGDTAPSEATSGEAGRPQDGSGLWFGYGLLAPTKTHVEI

Another assay has as its target T6, TRHR (UniProt P34981 1-398).
T6 sequence (looked up): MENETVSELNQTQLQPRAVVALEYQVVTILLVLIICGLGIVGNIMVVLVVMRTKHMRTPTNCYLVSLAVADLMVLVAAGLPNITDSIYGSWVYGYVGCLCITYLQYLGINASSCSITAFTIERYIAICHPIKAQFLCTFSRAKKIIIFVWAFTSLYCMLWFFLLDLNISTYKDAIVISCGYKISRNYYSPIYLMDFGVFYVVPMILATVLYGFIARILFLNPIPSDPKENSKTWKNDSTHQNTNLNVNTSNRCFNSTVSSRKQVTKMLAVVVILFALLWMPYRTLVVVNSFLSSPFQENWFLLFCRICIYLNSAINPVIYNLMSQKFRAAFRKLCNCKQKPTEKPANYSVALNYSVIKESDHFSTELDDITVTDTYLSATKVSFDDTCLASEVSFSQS

Chain of CNR1 (P21554 whole entry): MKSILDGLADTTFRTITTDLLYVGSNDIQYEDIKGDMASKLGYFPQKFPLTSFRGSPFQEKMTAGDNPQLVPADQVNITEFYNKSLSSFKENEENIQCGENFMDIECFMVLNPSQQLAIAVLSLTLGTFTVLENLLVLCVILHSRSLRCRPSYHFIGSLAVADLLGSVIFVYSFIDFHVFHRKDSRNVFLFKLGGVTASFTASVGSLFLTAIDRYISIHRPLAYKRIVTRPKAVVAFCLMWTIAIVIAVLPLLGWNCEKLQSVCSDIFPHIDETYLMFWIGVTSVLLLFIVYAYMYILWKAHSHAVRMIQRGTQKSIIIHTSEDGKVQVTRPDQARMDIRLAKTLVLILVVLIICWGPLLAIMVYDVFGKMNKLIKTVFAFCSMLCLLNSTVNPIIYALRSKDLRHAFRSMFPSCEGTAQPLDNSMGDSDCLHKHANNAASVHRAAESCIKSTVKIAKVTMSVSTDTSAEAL
Chain of CCR5 (P51681 whole entry): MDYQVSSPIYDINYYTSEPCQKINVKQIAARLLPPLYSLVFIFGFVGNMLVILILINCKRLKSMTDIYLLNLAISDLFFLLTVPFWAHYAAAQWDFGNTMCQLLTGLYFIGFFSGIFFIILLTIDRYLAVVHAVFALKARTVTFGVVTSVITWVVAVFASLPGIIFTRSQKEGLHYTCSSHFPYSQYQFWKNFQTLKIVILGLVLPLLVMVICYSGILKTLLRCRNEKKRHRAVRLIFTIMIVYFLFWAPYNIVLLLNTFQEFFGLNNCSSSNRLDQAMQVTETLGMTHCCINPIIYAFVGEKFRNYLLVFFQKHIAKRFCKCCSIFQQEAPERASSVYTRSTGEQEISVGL
Chain of PTGIR (P43119 whole entry): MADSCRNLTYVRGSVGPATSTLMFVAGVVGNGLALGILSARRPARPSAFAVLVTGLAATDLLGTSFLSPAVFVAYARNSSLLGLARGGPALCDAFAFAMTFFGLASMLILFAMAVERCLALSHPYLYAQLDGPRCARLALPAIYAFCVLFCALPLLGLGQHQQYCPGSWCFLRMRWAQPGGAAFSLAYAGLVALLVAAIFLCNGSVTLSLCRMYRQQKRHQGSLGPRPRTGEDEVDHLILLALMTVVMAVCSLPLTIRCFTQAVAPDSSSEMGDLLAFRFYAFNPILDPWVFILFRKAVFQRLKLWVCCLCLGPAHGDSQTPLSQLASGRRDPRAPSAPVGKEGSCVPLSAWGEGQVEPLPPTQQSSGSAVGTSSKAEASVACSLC
Chain of DRD3 (P35462 whole entry): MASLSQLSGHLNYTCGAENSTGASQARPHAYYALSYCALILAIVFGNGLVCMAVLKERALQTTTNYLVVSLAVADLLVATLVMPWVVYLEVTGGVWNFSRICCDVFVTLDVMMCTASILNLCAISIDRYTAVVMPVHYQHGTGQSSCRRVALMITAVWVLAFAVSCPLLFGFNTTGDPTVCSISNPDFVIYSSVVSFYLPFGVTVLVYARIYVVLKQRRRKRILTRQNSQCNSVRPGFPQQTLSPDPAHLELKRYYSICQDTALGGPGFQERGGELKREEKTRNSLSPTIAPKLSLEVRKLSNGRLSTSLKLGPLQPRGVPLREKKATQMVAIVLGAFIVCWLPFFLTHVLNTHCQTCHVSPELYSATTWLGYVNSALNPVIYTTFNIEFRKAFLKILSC
Chain of PPYR1 (P50391 whole entry): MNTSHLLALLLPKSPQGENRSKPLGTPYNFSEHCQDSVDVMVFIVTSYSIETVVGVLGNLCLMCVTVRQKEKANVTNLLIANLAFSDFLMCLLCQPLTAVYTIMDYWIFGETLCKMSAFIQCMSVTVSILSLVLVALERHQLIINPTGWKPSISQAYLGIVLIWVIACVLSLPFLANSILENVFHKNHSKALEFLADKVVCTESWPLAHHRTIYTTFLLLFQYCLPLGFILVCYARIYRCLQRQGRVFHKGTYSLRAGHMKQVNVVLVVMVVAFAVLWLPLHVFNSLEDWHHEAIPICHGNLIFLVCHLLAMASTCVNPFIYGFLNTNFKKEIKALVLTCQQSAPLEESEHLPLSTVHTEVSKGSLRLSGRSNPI

In the case of QATVGDVNTDRPGLLDLK (also: synthesised on Rink amide resin, C-terminal amide not given here outright) [octadecaneuropeptide (ODN)], the “% Activity, arrestin, antagonist mode, 2.5 uM” value in the assay with HTR2C is 2.2%; with CNR1, -37.5%; in the assay with TACR3, -5.8%; in the assay with CRHR1, 5.4%; in the assay with BRS3, -5.8%; with TACR2, 8.3%. Moreover, the “% Activity, arrestin, antagonist mode, 2.5 uM” value was -17.2% with GCGR; -6.6% with TRHR; -1% in the assay with DRD3; -11.4% with PPYR1; -16.1% with CCR5; -20% with PTGIR.
